The values below are quoted from earlier work in article PMC4359947.

pKd: −log10 of the molar value.

The data set concerns the target CAR D1 (Homo sapiens) (UniProt P78310).

Chain of CAR D1 (P78310 20-134): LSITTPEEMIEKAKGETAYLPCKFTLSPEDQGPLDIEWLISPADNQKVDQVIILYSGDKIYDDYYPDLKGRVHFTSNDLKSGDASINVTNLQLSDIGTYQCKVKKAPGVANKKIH

On to CAR D1 (from UniProt P78310), for which the pKd is 4.80.

Usually pKd stands for the Kd on a negative log10 scale, so that one unit is a factor of ten.
